The source of these data is the DeepSol protein solubility set.

The data set can be described thus: soluble on expression in E. coli; label from the status in PepcDB or PDB records.
Take “MKCSNEKVVNQEQSYESMDKFLDGVQEVAYIHSNQNVIGSSKAENHMSRWAAHDVFELKQFSQLPANIAVCSSKTYKEKVDADTLPHTKKGQQPSEGSISLPLYISNPVNQKKKKVYHTNQTTFIIGETPKGIRRKQFEEMASYFNSSSVNEFAKHITNATSEERQKMLRDFYASQYPEVKEFFVDSVSQFNNSSFEKGEQRTRKKSDKRESLIKPRLSDSETLSFKDSTNKISQVCSLKTYKRKSVKFQNHISYREEVFFNDAETKKSPVSSTQEIDSGKNSQASEDTVTSRSLNSESETRERRLENTMKDQQDLTRTGISRKEPLLKLENKKIENPVLENTSVISLLGDTSILDDLFKSHGNSPTQLPKKVLSGPMEKAKQRPKDFWDILNEQNDESLSKLTDLAVIETLCEKAPLAAPFKRREEPATSLWKSNEKFLWKKFSPSDTDENATNTQSTT”: the “soluble on expression in E. coli” value was “not soluble”.

Take “MSLENGVLKVGLCAAWPPFESRNETTGEIEGFDVDLAKALGEELGVEVEIIDAEWQALLGGLSKGDYDTLITCMSKKEASVENVEMSDVYYELNDVIVVRNDNNEINSVSDLSGKIVGVQLGSGSEQAVDALSGIQEIKRYNYNPEAMIDLQNNRSDAVVVGYTYALSEISKYPDLKVLDTPVASAEIVMVQKEGAEELTAKLNEALSNIKENGKYDEIQDKWLSLEEGHHHHHH”: the “soluble on expression in E. coli” value is “soluble”.

“ILAVLFANSVGNVLIERFNGVPAEERLHWRSFLVKLGADNLKGVKNEELLVACHKSVYIVYTMLGDVSIFLVGKDEYDELALAETIYIITAAVKDVCGKPPTERVFLDKYGRICLCLDEIVW”: the “soluble on expression in E. coli” value is on record as “not soluble”.

Consider “MSLCGIAGWVSFERDLSTQRAVAETMTKTMALRGPDDEGLWLDRRAALGHRRLSIIDLEGGRQPMTADEDGRTLACLVYTGEVYNFRELRLELQGLGHAFRTRSDTEVVLRAYLQWGEAMLERLNGMYAFALWDAREQRLLLVRDRMGVKPLYYYPMPDGVLFGSEPKAILAHPEAERRVTAGGLREMLDLVKTPEAAAFAGMHEVRPGQVVTIDRGGLRKRRYWQLEAREHTDDLPTTIRTVRELLDDIVERQIIADVPLCTLLSGGLDSSVVTALAARSMRRQGKGTVRSFSVDFVKHGAAFEADYLRGSPDAPFVRDLAAHAGTEHREILLESRELADPRLRAAVLGAQDLPPAYWGDMLPSLYKLFEAIRAQSTVALSGESADEVFGGYRWFHDAAAVDGDAFPWLAGSSGAFFDGQSLIAPGLLRELDMPGFRRDSYAQALAEVPRLASDSTRERRMREISHMHLTRFVQALLDRKDRMSMAVGLEVRVPFCDHRLVEYVFNAPWSMKNFDGREKSLLRAAGKDVLPESIVRRVKSPYPATQDPAYEQALRQGLARVLDDSRSPALPLLDKAAAWKLLDRPFGKTSTSPERAGLEMALGLDEWLRHHQVSLDLEGHHHHHH”, for which the “soluble on expression in E. coli” value is given as “not soluble”.

Regarding “GPLPVDLRGKTAFVAGVADSNGYGWAICKLLRAAGARVLVGTWPPVYSIFKKGLESSRFEQDSFYAQEPSSKVAAEAAEKPVDLVFDKIYPLDAVFDTPQDVPPEVSSNKRYAGVGGFTISEVAEAVRADVGQIDILVHSLANGPEVTKPLLQTSRKGYLAAVSSSSYSFVSLLQHFLPLMKEGGSALALSYIASEKVIPGYGGGMSSAKAALESDCRTLAFEAGRARAVRVNCISAGPLKSRAASAIGKAGDKTFIDLAIDYSEANAPLQKELESDDVGRAALFLLSPLARAVTGATLYVDNGLHAMGQALDSKSLTP”, the “soluble on expression in E. coli” value is listed as “soluble”.

As for “MHMKLDDITYMNPWWEGKEDYHVKQWEKQKVHWEPKWIREISLKPFSLNFVLGPRQVGKTTGIKLLIQKILEENPPESVLYLNLEILPTYRELLDIIREFQELKKEEGIKTGYIFLDEASSLEGWWRGVKPLIDSGLLENDVITVTGSSSLRVRRDIELFPGRRGGGKTLEVMPLSFPEYARVMGLKKHKLEGSKVIKLFEKYIQTGGFPGSINGFPMEDLLGAYIGEFVRFGKSLEIAKEIFSALIRSAPSATSFRALAEMTSGYSYKVVQDYIEFFRDLYILGMAYLKQGNQVMYRREKKFFFRDPLLAKLFSLWSGTEIGKDALYEWIVQEHVFRKFGEIHYFRNSYEIDIIASDMKIEVKAGKAHRKYPRGVKVLEKEDVPFFLIELYNEDC”, the “soluble on expression in E. coli” value is on record as “soluble”.

As for “MYAKANNRTVLSFSEQQIIDCGNFTSPCQENILSHEFIKKNGVVTEADYPYVGKENEKCKYDENKIKLWPTNMLLVGNLPETLLKLFIKEHGPGYFRMKAPPSFFNYKTGIYSPTQEECGKATDARSLTIVGYGIEGGQNYWIVKGSFGT”, the “soluble on expression in E. coli” value is given as “not soluble”.

On to “MRPEHLSLQLLAWIYLINGNPIVQKGGLEVLDITDSNDLSVRQRFEEVIRLDCASQRRKALKRKTDGDARIYIPTCSPKNSLLYDKVQCYDVSIYCWCVDELSGEPKLGSSTTRGKPKCEETPTTTVAPKRVRRNNRCKEKKRTRFLRRLVSTLKSEMIMSGINATKVSRDSAIRWKFNQLNINHNNVLERSEWKPFKSVLLEWKNVRQCSRNLFKTCDLNKDRKLTFDEWRKCIVQEINRVPAKRPDQLNPFLYILRSE”, for which the “soluble on expression in E. coli” value is on record as “soluble”.

As to “MGPNHPCGYLPGRDARFTYVSPAYPLSPQSYRGLLEEGFRRSGNWVYRPCCIGCSACLPVRLPVHDFRLTRSHRRVIKRNADIDIRVSVARFDERQFQLYVRYLAARHPLEHHHHHH”, the “soluble on expression in E. coli” value is listed as “not soluble”.

With “MSTEIKTLKPQAVWEYFYDLTQIPRPTGQMDEVTKYVFDFGKRLGLETEQDEVGNVIIRKPATPGMENKPIVTLQSHLDMVPQKNSDIDHDFTKDPIDAYIDGEWVKARG”, the “soluble on expression in E. coli” value is on record as “not soluble”.

As to “MSCGSNRGNEMKDKYDVLVIGAGPAGSIAAKTAAEKGLDVLLIEKRQEIGDPVRCAEGVNKECLKKHVEIDKRWICADLKGSCIFSPDGTKIEMAEEISGGEVGYVLERKVFDRALAEHAATAGAEVRVKTRATGLIIEDDFVKGARLMHLGKEYEVRASIVIGADGVESKVGRWAGIDTALKPVDVETCAQYLIAGADINQEYCEFYIGNEMAPGGYVWVFPKGGGKANVGIGILGSKMGKFKPRPVDYLNDFVQKKFPDARIVEMVFGGVPVSGSIEKTSVNGLMLVGDAARQSDPITGGGILNAMDAGKLAGEAAYEAISAGDVSVVKLEEVYEKKWRDTVGHDIDMSLIVKNCFINLTDDDLDSLAHSLKDVKFERMSLLDLLQALFKANKKLLWDLRVLFKDAAKEVIKNKTLEHHHHHH”, the “soluble on expression in E. coli” value is listed as “soluble”.

Take “MKKNDLSALQENCFCFCDEEISREAPFQVPIDFPEGFKVDTAEASAAVTWSTDNLSCISEPCLIQTGPEPEDIGVRYAVRVQGTITLLVSVSPVRNQYGQGDGAVSVIHTEEIDQVVYYAAQSGRCPDFSQITVEDLLIVPPFYGSPLTVAGTLVLPPSPDPQSYVFTANTGDSTVSVIDADLNTVVKTIPFSDVPTNLGVTFDKAFTYVLHGNTNLVSVIDNKTLTIINTITVGGGPRKIEFDPTDEFAYVMAAGSIYVINTASQSVIDVIPIPGALDFALDPNGQYVYTANGSSWSVDKYDVNTGQLVESIIDTFEFPSLITTPYAGNFAYVLNGELWPKGVTEISLSPLSRGGDFSRLFETLRTIVFSLDSTRAYFLEPYSEPFLINNLYVVNTARQRIIANVSLPGAFDLAVTPDKQYIYAAQPNDNAVTVYRTSDYTAVTVIPVGAGPSAIAMLEHHHHHH”: the “soluble on expression in E. coli” value is “not soluble”.

Regarding “SQPVAITDGIYWVGAVDWNIRYFHGPAFSTHRGTTYNAYLIVDDKTALVDTVYEPFKEELIAKLKQIKDPVKLDYLVVNHTESDHAGAFPAIMELCPDAHVLCTQRAFDSLKAHYSHIDFNYTIVKTGTSVSLGKRSLTFIEAPMLHWPDSMFTYVPEEALLLPNDAFGQHIATSVRFDDQVDAGLIMDEAAKYYANILMPFSNLITKKLDEIQKINLAIKTIAPSHGIIWRKDPGRIIEAYARWAEGQGKAKAVIAYDTMWLSTEKMAHALMDGLVAGGCEVKLFKLSVSDRNDVIKEILDARAVLVGSPTINNDILPVVSPLLDDLVGLRPKNKVGLAFGAYGWGGGAQKILEERLKAAKIELIAEPGPTVQWVPRGEDLQRCYELGRKIAARIAD”, the “soluble on expression in E. coli” value was “soluble”.

Turning to “MGSDKIHHHHHHMTKDDQKELGKTLWAIADQLRGSMNADDFRDYMLSFLFLRYLSDNYEAAAKKELGSDYPDAKTIGNSDKTPLSVWYASNPGDVAAFEQQMRRKAHYVIKPKYLWGNIVNLAKKQNHDLLDTLQQGFKHIEEDSFESEFQGLFSEINLASDKLGRKYDDRNAKLCSIISEIARGMALSAKTDSLGDAYEYLIGQFAAGSGKKAGEFYTPQEISNILSAIVTLDSQEPKTGPRGKLDSVFDFACGSGSLLLNIRNRMTNSGGSIGKIYGQEYNVTTYNLARMNMLLHGVKDTEFEIYHGDTLKNDWDWLRETNPAKKPRFDAVVANPPFSYRWEPGEAMAQDARFKNHGVAPKSAADFAFLLHGLQYLKDDGVMAIILPHGVLFRGGKEADIRRKLLDDGHIDTVIGLPANLFYSTGIPVCILVLKKCKKPDDVLFINAAGHFAKGKRQNQLTDEHIQRIVNTYQNRNKQDRYSRCVSMKEIADKDYNLNISRYVSTAEADKEIVLEAVHADLTAIESRLEESKKRHNAFLVELGLKPLP”, the “soluble on expression in E. coli” value is recorded as “not soluble”.

Turning to “DLYFNPRFLADDPQAVADLSRFENGQELPPGTYRVDIYLNNGYMATRDVTFNTGDSEQGIVPCLTRAQLASMGLNTASVAGMNLLADDACVPLTTMVQDATAHLDVGQQRLNLTIPQAFMSNRAR”, the “soluble on expression in E. coli” value was “soluble”.

Consider “MHHHHHHSSGRENLYFQGNTTKHIILVRHGQYERRYKDDENSKRLTKEGCKQADITGKKLKDILNNKKVSVIYHSDMIRAKETANIISKYFPDANLINDPNLNEGTPYLPDPLPRHSKFDAQKIKEDNKRINKAYETYFYKPSGDEDEYQLVICHGNVIRYFLCRALQIPLFAWLRFSSYNCGITWLVLDDEGSVVLREFGSVSHLPFESVTYF”, for which the “soluble on expression in E. coli” value is reported as “soluble”.

As to “METRRRSSRLQQQTTSDLNAREEPQPSEPPVKRARGAKKNEAPSTAPMPPKTTKKSTKPSRKQGSPIEAELDEMGFELENEEEAEIVVQKSKKNGRKLVKIDENLRISAENGSKSSNFLEENRMEIDEKPGNLAKKSSKNGSRVVKSDEKSENLVQSVPKSTTNGSKVAIIEDDPEIRAENGVKSSKSDEKPDFSAQNGSKLAQNAPNRISRPRRSVTTAKKVSYVPSDDQLELSSSSSELESSSEDEDTEIRPKTGSKIAKKREKSFKISESESSSESPDDESEASEASEDPSIPGPSEPRKRRKIQRKSTLSSGGATTKDLHWPKCSKASIARKTGNPGSKNAAKKPAKSSLRMAQKQKPDQPWKKNLKDYETDRKLAKGERRMLEYRHVAHAYVARGKIEEITYDEAYKLHEMMKKAYFAGRSLLDAAVLDPVEFEKSQKNVKKSEKNDEKNTAGDSSSSEDEWEEMEHFQPPIIDDNIEVSIDHEGGGGDDGEEVVKDWWAIYLRQEINRKIREMWENTHKLLFCLLRGLELTTRLVVNVRAIPRRWDKTQQKELQNELSKFRELSRSRSTTPGEKSLEIQEKSGEKSQKPAKKGQKSEKKAAKKVVVEERNYWVEYWQPREKRWICVDPLHKSVDEPLSIHEHSASPISYVFAIDNKQGICEVSQRYAMDCVKQDFRRRRTNPKWVAWTLFLPPFAANSERKKWEMMQMREDLVKRPLPTVMSEYKNHPLYALEKDLLKFEAIYPPPATQKPLGQIRGHNVYPRSTVFTLQGENNWLKLARSVKIGEKPYKIVKARPDPRIPVEDREDKFLDVYGYWQTEKYRRPPLKNGKIPHNEYGNVYMFNENMCPLDCTYLKLSGLVQISRKLGKQCIPAVVGWAFDGGFTHPVIDGAIVLEKDAIDFINAWEKLESGRAEKEEKQRVEKIHENWKKLIKGMLRLAYVRKQFGHPAAEKPTKRQKIGGKTEEIEENEGGAGPPSSVDHITDNTEQITPMHGFSLDDFINKKK”, the “soluble on expression in E. coli” value was “soluble”.
